The DeepSol protein solubility set

experiment: soluble on expression in E. coli; label from the status in PepcDB or PDB records

| Sequence | soluble on expression in E. coli |
| --- | --- |
| MNIVCIDTCFSSVAITAQGNAGTFTSVFTPAKARHSAILIPAIETAVKQAGFSINETDVLVCPQGPGGFTGLRLAYSTAKAIQLQTNARFFCVSILEALCSKYGDKNQFLSVIDAKRDCFYVQAFENKKPISEAFDIRAEDALKLIDKNKKTIICGFGTEKFNEEAGASIESNNITLIEADKETLSKTLLDCFLTNKNCKKVEDHEGPVYIRKSDAEY | not soluble |
| MRRRGKGGGSVFYHEGKGKWVAQLTWIDPATGRKVKREKHCETRKEAERALADMVVAQAKGLLTDPSRLTTRDFALDYLKRLEREGLRPNSIRLAQEELAHALPSLKDPKAHDPLGRMRLQEVKPVHVRAAVDRVAEAGYAPRTVGRVLMRLKALFREALRLELVARNPAEAVRLRLPKGEKTARALEPQEVARLLETAEASRSKDMALLLRLMLETGLRRGEALALQWRDIDLEAGELTVWRSWTKARGKGAFSEPKTPTAKRKVPLPRGLLLRLKARREELLERLTPKEVDGLFLVGGVKPVDPDAFNHYLRRLAERAGLGRVRVHDLRHTWATLALSRGVPLEVVSERLGHASPTITLNVYRHLLEEERRGWVLDLEELLYPAPRAQA | soluble |
| MAHHHHHHMAKEYPILVVPCKRGGIPCLTPDQARAILNEEERVISVSIFDASEFVDPCKKANQGFAEFCGLGEFRTILTVRSPHIGMHASAPATDAGLCANHEKGRISLGMDKWKEMVLPLRPEIAIPPYDSVSINEPQKKRRRTAMTRSAKWATSADSLQGNGNCKLMKPLCAAENNGEFVFLEELCQNETLQQYTYHVKEAINKGQVMSTAISLPSLLICLKYNVCFIESAIPWILAEKGIGLVFDFNPVSGVSPARYETQIDLNDDCFTKDIRPLSPDCNCYTCKRHMRAYIHHLLTVQEMNSKTLLVIHNLTRLIQLVRLYRILDAEDREALLNWLFAQF | not soluble |
| MKEVQETAEKIRTMEIRGAGRIAKAAAEVIRDYAAGLEAASIEEFAAGITEVSNYLISTRPTAVSLPNAVKLSSRYSSDNVENARKEVINNANLFIERADKALGRIGKIGAGRVQDGDVIMTHCNSHAALSIITTAFEDGKNISVIATESRPRRQGLLTVRRLNGFGIPTTLIVDSAVRYYMKDVDKVIVGADAIAANGALVNKIGTSQLALAAHEARKSFMVAAETFKFSPSTILGIPIEIEERSTDEVVDPSVLAELPHVQVKNPAFDFTPSEYIDMIVTDIGIIPPAMAYIVIKEHLGWEFEEIAAALEHHHHHH | not soluble |
| MSLKSKGIKNLLIDLGGVLINLDRERCIENFKKIGFQNIEEKFCTHQLDGIFLQQEKGLITPAEFRDGIREMMGKMVSDKQIDAAWNSFLVDIPTYKLDLLLKLREKYVVYLLSNTNDIHWKWVCKNAFPYRTFKVEDYFEKTYLSYEMKMAKPEPEIFKAVTEDAGIDPKETFFIDDSEINCKVAQELGISTYTPKAGEDWSHLFRKEGHHHHHH | soluble |
| MSLNNDRFAKQRVADDLDEPVEEAGNLARKLGLKPYPVNYWIVDYDEMNELIAYGGFQQRYPHWRWGMQYDRQQKQGQFLGGKAFEIVNNDDPAHAFLQESNTLADQKAVITHVEAHADFFANNEWFRMFTDGSSRTTTDESGEDRRRGPDAAGMLARHGDTIQEYMQDPDIERAEVERFIDHVLCLEDNIDQHIPYSPVETVPEEFEDIEGADVTEQLDDLELSEEVKRQVFDEEWLDAQRDDDENVTFPAEPDKDVLGFLRKHGMQYDADAERATEMEDWQIELLELLRREAYYFAPQKMTKVMNEGWASYWESLMMTGEQFAGDDEFILYSDHMSKVLGSGGLNPYSLGLEIWEYVENTENRREVIERLLRVKGITWRNFDDSVDYEMVQGRESHNDVTFLDEFLTQEFVDDNDYFTYEYTHASGDYRVTSTDHEDVKKKLMLQFTNFGKPTVVVEDGNYQNRNELLLAHQYNGVMLDIGQAKEVLKRTFELWGRPVNLLTIVKEFDDHDVEVAKREGHHHHHH | not soluble |
| MTAEPMSESKLNTLVQKLHDFLAHSSEESEETSSPPRLAMNQNTDKISGSGSNSDMMENSKEEGTSSSEKSKSSGSSRSKRKPSIVTKYVESDDEKPLDDETVNEDASNENSENDITMQSLPKEDGLHGIVSCTACGQQVNHFQKDSIYRHPSLQVLICKNCFKYYMSDDISRDSDGMDEQCRWCAEGGNLICCDFCHNAFCKKCILRNLGRKELSTIMDENNQWYCYICHPEPLLDLVTACNSVFENLEQLLQQNKKKIKVDSEKSNKVYEHTSRFSPKKTSSNCNGEEKKLDDSCSGSVTYSYSALIVPKEMIKKAKKLIETTANMNSSYVKFLKQATDNSEISSATKLRQLKAFKSVLADIKKAHLALEEDLNSEFRAMDAVNKEKNTKEHKVIDAKFETKARKGEKPCALEKKDISKSEAKLSRKQVDSEHMHQNVPTEEQRTNKSTGGEHKKSDRKEEPQYEPANTSEDLDMDIVSVPSSVPEDIFENLETAMEVQSSVDHQGDGSSGTEQEVESSSVKLNISSKDNRGGIKSKTTAKVTKELYVKLTPVSLSNSPIKGADCQEVPQDKDGYKSCGLNPKLEKCGLGQENSDNEHLVENEVSLLLEESDLRRSPRVKTTPLRRPTETNPVTSNSDEECNETVKEKQKLSVPVRKKDKRNSSDSAIDNPKPNKLPKSKQSETVDQNSDSDEMLAILKEVSRMSHSSSSDTDINEIHTNHKTLYDLKTQAGKDDKGKRKRKSSTSGSDFDTKKGKSAKSSIISKKKRQTQSESSNYDSELEKEIKSMSKIGAARTTKKRIPNTKDFDSSEDEKHSKKGMDNQGHKNLKTSQEGSSDDAERKQERETFSSAEGTVDKDTTIMELRDRLPKKQQASASTDGVDKLSGKEESFTSLEVRKVAETKEKSKHLKTKTCKKVQDGLSDIAEKFLKKDQSDETSEDDKKQSKKGTEEKKKPSDFKKKVIKMEQQYESSSDGTEKLPEREEICHFPKGIKQIKNGTTDGEKKKKK | soluble |
| MEGVQEVEIDAPLSGWHPAEGEDASFSQSINYPASSVNMADDQNISAQIRGKIKNYAAAGKVQQGRLVVNGASMPQRIESDGSFARPYIFTEGSNSVQVISPDGQSRQKMQFYSTPGTGTIRARLRLVLSWDTDNTDLDLHVVTPDGEHAWYGNTVLKNSGALDMDVTTGYGPEIFAMPAPIHGRYQVYINYYGGRSETELTTAQLTLITDEGSVNEKQETFIVPMRNAGELTLVKSFDWLEHHHHHH | not soluble |
| MPIDDNIIIADEAVIHPGDLHEDFIRSSGPGGQNVNKVATAVQLRFDAANAAGLSERVRARTIKLAGQRATKDGVIVIEAGRFRTQEQNRADARARLTALVAKAAEPPPPPRKKTRPSKGAVERRLKSKAGRGTIKKLRGRVGDDLEHHHHHH | soluble |
| MGFFDSGIGGMTVLYEAIKVLPYEDYIFYADTLNVPYGEKSKGKVKEYIFNAAEFLASQNIKALVIACNTATSIAIEDLRRNFDFPIIGIEPAVKPAINKCTEERKRVLVVATNLTLKEEKFHNLVKEIDHHDLVDCLALPGLVEFAENFDFSEDKIIKYLKNELSSFDLKQYGTIVLGCTHFPFFKNSFEKLFGIKVDMISGSVGTAKQLKKVLADRNQLGKGSGSITFFNSGHKIVDQEVISKYKRLFEILDETQRSHVGH | not soluble |
| MGSDKIHHHHHHYYLIVSQLLGDTASVKLLVPPGANPHLFSLKPSDAKTLEEADLIVANGLGLEPYLEKYREKTVFVSDFIPALLLIDDNPHIWLDPFFLKYYIVPGLYQVLIEKFPEKQSEIKQKAEEIVSGLDTVIRDSFKALLPYTGKTVVMAHPSFTYFFKEFGLELITLSSGHEHSTSFSTIKEILRKKEQIVALFREPQQPAEILSSLEKELRMKSFVLDPLGVNGEKTIVELLRKNLSVIQEALK | not soluble |
| MAEEVRAFSLPSRRVVLQDEKMEQDEEHSSPTRSTSSNSDEPTETIESGDQFDVNEPIPTIETLEPVIISAASVQQLPAISLSGNNAQRTLWIGDVPTDWTEETLSQVFTECGHAPYKVKRVYVKDELKGYCFIEFITFDEARQTLYDLNGNRIPGFKDIRFNLCFANDSYNPNSEFNLHVSSVPDDMADAELYRIFDKYQSCRGAKMFRFVDGSSKGSGFVRFGNQTDQQMALVEMHRTKVGGCRIILKLAGSRGERLDRGESRQFKSQRNDRRRDEKSGQYRNGTAVPQQTQVYDAYGNPVVVPVDKNIYGTDHPWGPFPDDPDLDSIIGLDLLTTKYRPQIANKRLMIDTDQFMLDLESSRWSSIAFNTNIKKEDFEKRITDNPWTAVP | not soluble |
| MSEFDFDVVVVGAGAVGLACGYALSRRGLVVAVLEEQGRIGEGVSSRNSEVIHGGLYYPTGSLKAKLCVQGRRALYAFCDAHKVPYKKCGKLVVATSEDEIARLDTIWEQALANDVEGMERLTGAQARALEPGLNAHAALLSPESGVFASHDYMLALQGEIEAAGGAVVLSTPFEGAEPLAGGGFRVRAGGAEPTDLTCRLLVTAPGLSSQAVAGRIEGYPAEQIPKAHFGKGIYFRLSGKAPFQRLIYPPPIHGALGTHYRNDMGGQAVFGPDLEYVAAPDYSVDPAKADAFAAYIRKFWPDLPADRLVPDYAGVRPKLHGPGEPQPDFQLRGVEDHGLAGLMALFGIESPGLTSSLAIGETVAERLCGASLEHHHHHH | soluble |
| MEAVVVEREAKGMKEIAIQEKDLTLQWRGNTGKLVKVRLKNTRAMEMWYNKQITEENIQEITTLNIIKNGKSLALEVYPEKSIYVKPNLGRINVPVFFIKTPINRGVFEEIFGETLKA | soluble |
| TEHLTLAFKIERPYDKVLKTISKKNLKNYIKETFNFFKSGYMKQNYLGSENDVIELDDVANIMFYGEGEVGDNHQKFMLIFDTGSANLWVPSKKCNSSGCSIKNLYDSSKSKSYEKDGTKVDITYGSGTVKGFFSKDLVTLGHLSMPYKFIEVTDTDDLEPIYSSVEFDGILGLGWKDLSIGSIDPIVVELKNQNKIDNALFTFYLPVHDVHAGYLTIGGIEEKFYEGNITYEKLNHDLYWQIDLDVHFGKQTMEKANVIVDSGTTTITAPSEFLNKFFANLNVIKVPFLPFYVTTCDNKEMPTLEFKSANNTYTLEPEYYMNPILEVDDTLCMITMLPVDIDSNTFILGDPFMRKYFTVFDYDKESVGFAIAKN | soluble |
| GSKKRQRFVDKNGRCNVQHGNLGSERAETLMFSEHAVISMRDGKLTLMFRVGNLRNSHMVEAQIRCKLLKSRQTPEGEFLPLDQLELDVGFSTGADQLFLVSPLTICHVIDAKSPFYDLSQRSMQTEQFEVVVILEGIVETTGMTCQARTSYTEDEVLWGHRFFPVISLEEGFFKVDYSQFHATFEVPTPPYSVKEQEEMLLMSSPL | soluble |
| MSLAAGFAPLADIPVGPDYVIGPGDRIILNLWGSAEGTHELEVNRSGEIVLPRVGSVKVWGITFERLPEVLKTHLSKIYKNFDLNVTMGKLRVIKVYVVGEVKMPGDYNLSPLSTLINALAASGGPLKTGTLRNIKIKRGGKVVETVDLYDFFLKGDKGKDIRLQPGDTIFVPVIGRVAGIAGNVKRPAIYELKDEKNLGDLVELAEGFLPTGYLQRVQITRVDAHDKRMVADFNIDPKGAGEGHHHHHH | not soluble |
| MGSDKIHHHHHHMRKFKIPNMGALVAFEAAARHESFTHTAKELFLTESAVSRQIATLEASLGVRLFARVKQRVVLTRAGKLYGTQVRRALEALDRDTLSIIAHGSGGGYLELAVLPTFASHWLIPRIKSFYDRTPDVRVNMGSRTDLFSFEDTHFEAAIHYGKPTWPGTSSDYLFGEEVVPICSPALLDGPVERVEDLLAYPLLHSTTRPGAWAQWFETHGVEDIRTMQGVRYELHTMLISAAAAGLGIALVPKFFVEEQLQQLGLVVPCDAATVGDSAYYLVYPTELSHSKPLESFRAWLLEQASAYAAPGRDGEEDDLDAEDDEDVE | not soluble |
